Tested on: NS5BΔ21 (viral RNA-dependent RNA polymerase) (Hepatitis C virus)
Assay: competition (filter binding)
Conditions: 5 mM HEPES pH 7.9, 2 mM MgCl2, 25 mM KCl, 37 °C, 30 min; nitrocellulose dot-blot filter binding. Aptamer:CRE Kd values (Table 2) are RNA-RNA and not listed.

With HCV-CRE194 the binding signal was 75.4 % complex.

From PMC6331917
